Laboratory results published in the supplement of paper PMC10567573.

B1: INTS3 (parent)
chain: EEITEESLEESVGKPLYLIFRNLC
B2: STK38L (parent)
chain: FCIDSENRIGNSGVEEIKGHPFFE

Variants of: B1
Test: protein stability index of a GFP-peptide fusion (GPS, HEK-293T) (PSI 1-6); higher = more stable
Settings: c terminus: a fixed tail appended
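Also: lentivirally expressed fusions sorted by FACS into six bins by GFP to DsRed ratio, PSI derived from sequencing read proportions per bin multiplied by bin number.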

Q: For AEITEESLEESVGKPLYLIFRNLC [E1A], which protein stability index is on record?
A: 3.14

Q: Which protein stability index does the source give for EEIPEESLEESVGKPLYLIFRNLC [T4P] here?
A: 2.77

Q: Which protein stability index does the source give for EEIREESLEESVGKPLYLIFRNLC [T4R] here?
A: 2.3

Q: Which protein stability index does the source give for EEILEESLEESVGKPLYLIFRNLC [T4L] here?
A: 2.28

Q: Which protein stability index does the source give for EEIHEESLEESVGKPLYLIFRNLC [T4H] here?
A: 2.99

Q: For EEIMEESLEESVGKPLYLIFRNLC [T4M], which protein stability index is on record?
A: 2.23

Q: For EEISEESLEESVGKPLYLIFRNLC [T4S], which protein stability index is on record?
A: 2.4

Q: For EEIFEESLEESVGKPLYLIFRNLC [T4F], which protein stability index is on record?
A: 2.01

Q: For EEIQEESLEESVGKPLYLIFRNLC [T4Q], which protein stability index is on record?
A: 2.71

Q: Which protein stability index does the source give for EEIEEESLEESVGKPLYLIFRNLC [T4E] here?
A: 2.41

Q: For EEIKEESLEESVGKPLYLIFRNLC [T4K], which protein stability index is on record?
A: 2.46

Q: Which protein stability index does the source give for EEIWEESLEESVGKPLYLIFRNLC [T4W] here?
A: 1.68

Q: Which protein stability index does the source give for EEIDEESLEESVGKPLYLIFRNLC [T4D] here?
A: 3.38

Q: For EEIAEESLEESVGKPLYLIFRNLC [T4A], which protein stability index is on record?
A: 2.52

Q: With EEICEESLEESVGKPLYLIFRNLC [T4C] as the variant, how does the protein stability index read?
A: 2.46

Q: For EEIIEESLEESVGKPLYLIFRNLC [T4I], which protein stability index is on record?
A: 1.98

Q: Which protein stability index does the source give for EEINEESLEESVGKPLYLIFRNLC [T4N] here?
A: 2.83

Q: Which protein stability index does the source give for EEIVEESLEESVGKPLYLIFRNLC [T4V] here?
A: 2.3

Q: For EEIYEESLEESVGKPLYLIFRNLC [T4Y], which protein stability index is on record?
A: 2.29

Q: Which protein stability index does the source give for EEIGEESLEESVGKPLYLIFRNLC [T4G] here?
A: 2.66

Variants of: B2
Test: as above
Settings: c terminus: a fixed tail appended

Q: Which protein stability index does the source give for FCIDSENRIGNSGVEEIKGVPFFE [H20V] here?
A: 3.19

Q: Which protein stability index does the source give for FCIDSENRIGNSGVEEIKGTPFFE [H20T] here?
A: 3.83

Q: Which protein stability index does the source give for FCIDSENRIGNSGVEEIKGRPFFE [H20R] here?
A: 2.35

Q: With FCIDSENRIGNSGVEEIKGQPFFE [H20Q] as the variant, how does the protein stability index read?
A: 3.48

Q: With FCIDSENRIGNSGVEEIKGYPFFE [H20Y] as the variant, how does the protein stability index read?
A: 2.47

Q: With FCIDSENRIGNSGVEEIKGHPKFE [F22K] as the variant, how does the protein stability index read?
A: 4.49

Q: With FCIDSENRIGNSGVEEIKGHPEFE [F22E] as the variant, how does the protein stability index read?
A: 4.79

Q: For FCIDSENRIGNSGVEEIKGHPYFE [F22Y], which protein stability index is on record?
A: 2.42

Q: Which protein stability index does the source give for FCIDSENRIGNSGVEEIKGHPTFE [F22T] here?
A: 4.5

Q: Which protein stability index does the source give for FCIDSENRIGNSGVEEIKGHPPFE [F22P] here?
A: 4.32

Q: With FCIDSENRIGNSGVEEIKGHPQFE [F22Q] as the variant, how does the protein stability index read?
A: 3.1

Q: Which protein stability index does the source give for FCIDSENRIGNSGVEEIKGHPGFE [F22G] here?
A: 4.37

Q: For FCIDSENRIGNSGVEEIKGHPIFE [F22I], which protein stability index is on record?
A: 3.65

Q: Which protein stability index does the source give for FCIDSENRIGNSGVEEIKGHPDFE [F22D] here?
A: 5.23

Q: Which protein stability index does the source give for FCIDSENRIGNSGVEEIKGHPRFE [F22R] here?
A: 4.21

Q: For FCIDSENRIGNSGVEEIKGHPLFE [F22L], which protein stability index is on record?
A: 3.74

Q: With FCIDSENRIGNSGVEEIKGHPVFE [F22V] as the variant, how does the protein stability index read?
A: 4.11

Q: With FCIDSENRIGNSGVEEIKGHPAFE [F22A] as the variant, how does the protein stability index read?
A: 3.58

Q: Which protein stability index does the source give for FCIDSENRIGNSGVEEIKGHPHFE [F22H] here?
A: 4.33

Q: For FCIDSENRIGNSGVEEIKGHPCFE [F22C], which protein stability index is on record?
A: 3.81

Q: With FCIDSENRIGNSGVEEIKGHPNFE [F22N] as the variant, how does the protein stability index read?
A: 4.5

Q: For FCIDSENRIGNSGVEEIKGHPFFA [E24A], which protein stability index is on record?
A: 1.92

Q: Which protein stability index does the source give for FCIDSENRIGNSGVEEIKGHPFFS [E24S] here?
A: 2.15

Q: Which protein stability index does the source give for FCIDSENRIGNSGVEEIKGHPFFH [E24H] here?
A: 1.54

Q: Which protein stability index does the source give for FCIDSENRIGNSGVEEIKGHPFFK [E24K] here?
A: 1.72

Q: Which protein stability index does the source give for FCIDSENRIGNSGVEEIKGHPFFY [E24Y] here?
A: 1.69

Q: Which protein stability index does the source give for FCIDSENRIGNSGVEEIKGHPFFG [E24G] here?
A: 1.59

Q: Which protein stability index does the source give for FCIDSENRIGNSGVEEIKGHPFFD [E24D] here?
A: 2.24

Q: With FCIDSENRIGNSGVEEIKGHPFFW [E24W] as the variant, how does the protein stability index read?
A: 1.61

Q: With FCIDSENRIGNSGVEEIKGHPFFP [E24P] as the variant, how does the protein stability index read?
A: 2.01

Q: Which protein stability index does the source give for FCIDSENRIGNSGVEEIKGHPFFC [E24C] here?
A: 2.7

Q: With FCIDSENRIGNSGVEEIKGHPFFL [E24L] as the variant, how does the protein stability index read?
A: 4

Q: Which protein stability index does the source give for FCIDSENRIGNSGVEEIKGHPFFM [E24M] here?
A: 1.45

Q: For FCIDSENRIGNSGVEEIKGHPFFV [E24V], which protein stability index is on record?
A: 1.71

Q: With FCIDSENRIGNSGVEEIKGHPFFI [E24I] as the variant, how does the protein stability index read?
A: 2.72

Q: With FCIDSENRIGNSGVEEIKGHPFFQ [E24Q] as the variant, how does the protein stability index read?
A: 1.75

Q: With FCIDSENRIGNSGVEEIKGHPFFF [E24F] as the variant, how does the protein stability index read?
A: 1.74

Q: For FCIDSENRIGNSGVEEIKGHPFFN [E24N], which protein stability index is on record?
A: 2.19

Q: With FCIDSENRIGNSGVEEIKGHPFFT [E24T] as the variant, how does the protein stability index read?
A: 1.21

Q: For FCIDSENRIGNSGVEEIKGHTFFE [P21T], which protein stability index is on record?
A: 2.91

Q: Which protein stability index does the source give for FCIDSENRIGNSGVEEIKGHWFFE [P21W] here?
A: 1.9

Q: Which protein stability index does the source give for FCIDSENRIGNSGVEEIKGHEFFE [P21E] here?
A: 3.52

Q: Which protein stability index does the source give for FCIDSENRIGNSGVEEIKGHCFFE [P21C] here?
A: 2.07

Q: Which protein stability index does the source give for FCIDSENRIGNSGVEEIKGHKFFE [P21K] here?
A: 2.84

Q: For FCIDSENRIGNSGVEEIKGHIFFE [P21I], which protein stability index is on record?
A: 2.46

Q: For FCIDSENRIGNSGVEEIKGHQFFE [P21Q], which protein stability index is on record?
A: 2.99

Q: Which protein stability index does the source give for FCIDSENRIGNSGVEEIKGHRFFE [P21R] here?
A: 2.97

Q: Which protein stability index does the source give for FCIDSENRIGNSGVEEIKGHLFFE [P21L] here?
A: 1.42

Q: For FCIDSENRIGNSGVEEIKGHGFFE [P21G], which protein stability index is on record?
A: 2.54

Q: For FCIDSENRIGNSGVEEIKGHHFFE [P21H], which protein stability index is on record?
A: 2.89

Q: With FCIDSENRIGNSGVEEIKGHYFFE [P21Y] as the variant, how does the protein stability index read?
A: 2.25

Q: With FCIDSENRIGNSGVEEIKGHVFFE [P21V] as the variant, how does the protein stability index read?
A: 2.28

Q: Which protein stability index does the source give for FCIDSENRIGNSGVEEIKGHNFFE [P21N] here?
A: 3.13

Q: With FCIDSENRIGNSGVEEIKGHMFFE [P21M] as the variant, how does the protein stability index read?
A: 1.94

Q: With FCIDSENRIGNSGVEEIKGHDFFE [P21D] as the variant, how does the protein stability index read?
A: 4.22

Q: With FCIDSENRIGNSGVEEIKGHSFFE [P21S] as the variant, how does the protein stability index read?
A: 3.73

Q: With FCIDSENRIGNSGVEEIKGHAFFE [P21A] as the variant, how does the protein stability index read?
A: 2.72

Q: With FCIDSENRIGNSGVEEIKGHFFFE [P21F] as the variant, how does the protein stability index read?
A: 1.7

Q: Which protein stability index does the source give for FCIDSENRIGNSGVEEIKGHPFIE [F23I] here?
A: 2.47

Q: For FCIDSENRIGNSGVEEIKGHPFTE [F23T], which protein stability index is on record?
A: 1.46

Q: With FCIDSENRIGNSGVEEIKGHPFLE [F23L] as the variant, how does the protein stability index read?
A: 2.52

Q: For FCIDSENRIGNSGVEEIKGHPFVE [F23V], which protein stability index is on record?
A: 1.85

Q: For FCIDSENRIGNSGVEEIKGHPFPE [F23P], which protein stability index is on record?
A: 4.07

Q: For FCIDSENRIGNSGVEEIKGHPFME [F23M], which protein stability index is on record?
A: 1.07

Q: For FCIDSENRIGNSGVEEIKGHPFYE [F23Y], which protein stability index is on record?
A: 3.35

Q: Which protein stability index does the source give for FCIDSENRIGNSGVEEIKGHPFCE [F23C] here?
A: 1.8

Q: For FCIDSENRIGNSGVEEIKGHPFWE [F23W], which protein stability index is on record?
A: 2.02

Q: Which protein stability index does the source give for FCIDSENRIGNSGVEEIKGHPFDE [F23D] here?
A: 4.86

Q: With FCIDSENRIGNSGVEEIKGHPFRE [F23R] as the variant, how does the protein stability index read?
A: 1.72

Q: Which protein stability index does the source give for FCIDSENRIGNSGVEEIKGHPFNE [F23N] here?
A: 4.2

Q: Which protein stability index does the source give for FCIDSENRIGNSGVEEIKGHPFSE [F23S] here?
A: 1.93

Q: Which protein stability index does the source give for FCIDSENRIGNSGVEEIKGHPFHE [F23H] here?
A: 2.69

Q: For FCIDSENRIGNSGVEEIKGHPFAE [F23A], which protein stability index is on record?
A: 1.78

Q: With FCIDSENRIGNSGVEEIKGHPFKE [F23K] as the variant, how does the protein stability index read?
A: 2.19
